Patent US20100196375A1
Numbering of substitutions follows the chain as printed.

B1: recombinant scFv3-18L (scFv)
scFv: QAVLTQPSSVSGSLGQRVSITCSGSSSNIGRYGVGWYQQVPGSGLRRIIYGSVSRPSGVPVRFSGSKSGDTATLTISSLQAEDEADYFCATADYTSSPVLFGSGTTLTVLGQSSRSSSGGGSSGGGGSQVQLRESGPSLVKPSQTLSLTCTVSGFSLSGNSVGWVRQTPGKALEWLGNMDGIGTTDYNPALKSRLSITKDNSKSQVSLSLSSVTTEDTATYYCAKCTGAYCWRFDDAYGYDDWGQGLLVTVSS
B2: recombinant scFv4m-18L (scFv)
scFv: B1 scFv with S118G, D217G
B3: recombinant scFv1-7L (scFv)
scFv: QAVLTQPSSVSGSLGQRVSITCSGSSSNIGRYGVGWYQQVPGSGLRRIIYGSVSRPSGVPVRFSGSKSGDTATLTISSLQAEDEADYFCATADYTSSPVLFGSGTTLTVLGQSSRSSQVQLRESGPSLVKPSQTLSLTCTVSGFSLSGNSVGWVRQTPGKALEWLGNMDGIGTTDYNPALKSRLSITKDNSKSQVSLSLSSVTTEDTATYYCAKCTGAYCWRFDDAYGYDDWGQGLLVTVSS

Molecular target: BHV-1 virus (Cooper strain)
Assay: cell-based or functional assay

Binder	50% viral neutralization end point [µg/mL]	Percent Plaque reduction at 11 µg/ml, Experiment I [%]	Percent Plaque reduction at 11 µg/ml, Experiment II [%]	Percent Plaque reduction at 33 µg/ml, Experiment I [%]	Percent Plaque reduction at 33 µg/ml, Experiment II [%]	Percent Plaque reduction at 99 µg/ml, Experiment I [%]	Percent Plaque reduction at 99 µg/ml, Experiment II [%]	Percent Plaque reduction at 15 µg/ml, Experiment I [%]	Percent Plaque reduction at 15 µg/ml, Experiment II [%]	Percent Plaque reduction at 45 µg/ml, Experiment I [%]	Percent Plaque reduction at 45 µg/ml, Experiment II [%]	Percent Plaque reduction at 135 µg/ml, Experiment I [%]	Percent Plaque reduction at 135 µg/ml, Experiment II [%]	fold higher protein concentration required for virus neutralization, compared with wild type scFv with either 7 or 18 amino acid linker [fold]	Percent plaque reduction at 24 µg/ml, Experiment I [%]	Percent plaque reduction at 24 µg/ml, Experiment II [%]	Percent plaque reduction at 72 µg/ml, Experiment I [%]	Percent plaque reduction at 72 µg/ml, Experiment II [%]	Percent plaque reduction at 216 µg/ml, Experiment I [%]	Percent plaque reduction at 216 µg/ml, Experiment II [%]
B1	5.5	78.7	80	89.3	90.5	93.4	94.7													
B2	15							55.8	48.5	67	70	92.4	92.6	2.7 to 5						
B3	3														86.3	84.8	95.9	94.2	100	100
